According to EP2100620A1:

Tests used:
[1] = biological target: HLA receptor A1 (HLA-A*0101), purified from transfected human cells (human); assay: competitive binding assay: unlabeled test peptide against 5 nM 125I-labeled standard peptide on purified HLA with 1 uM b2m, size exclusion HPLC, 51 h incubation; conditions: remark: other sources report otherwise
[2] = biological target: HLA receptor A11 (HLA-A*1101), purified from transfected human cells (human); assay: competitive binding assay: unlabeled test peptide against 5 nM 125I-labeled standard peptide on purified HLA with 1 uM b2m, size exclusion HPLC, 68 h incubation

Binder	IC50 [1] [nM]	IC50 [2] [nM]
ISEYRHYCY (modifications not checked) [… (SEQ ID NO:70), HPV 16 E6 peptide]	49	
HTMLCMCCK (modifications not checked) [… (SEQ ID NO:122), HPV strain 18 E7 59-67]		67
